# Test results taken from patent US20240067721A1 (UNIVERSITY OF BIRMINGHAM, published 2024).
# B1: Nanobody 2 (Nb2), with C-terminal HA and His tags (VHH)
# VHH: QVQLQESGGGLVQPGGSLRLSCAAAGFTFDYYAIAWFRQAPGKEREGVSCISSSDGTTYYADSVKGRFTISKDNAKNTMYLQMNSLKPEDTAVYYCATSPLYSTNDRCISEDYDYWGQGTQVTVSSAAAYPYDVPDYGSHHHHHH
# notes: Tagged form (detected with anti-His in ELISA and flow cytometry)
# B2: un-tagged Nb2 (thrombin-cleaved nanobody 2) (VHH)
# VHH: QVQLQESGGGLVQPGGSLRLSCAAAGFTFDYYAIAWFRQAPGKEREGVSCISSSDGTTYYADSVKGRFTISKDNAKNTMYLQMNSLKPEDTAVYYCATSPLYSTNDRCISEDYDYWGQGTQVTVSS
# notes: also called un-tagged nanobody 2
# B3: Nb28 fluorescently labelled with AlexaFluor 647 (Nb28-AF647) (VHH)
# VHH: QVQLQESGGGLVQAGDSLRLSCAASGTYSMGWFRQAPGKEREFVAAISWSGGRTNYADSVKGRFTISRDNAKNTVYLQMNSLKPEDTAVYYCSAAIYDNVSSRIGSYTYWGQGTQVTVSS
# modifications: AlexaFluor 647 dye on free amino groups (NHS-ester labelling)
# notes: also called labelled Nb28
# B4: Nanobody 21 (Nb21), with C-terminal HA and His tags (VHH)
# VHH: QVQLQESGGGLVQPGGSLRLSCAASGRTFTRSIMGWFHQAPGKEREFLAGISWSGANTYYADSVRGRFTISRDNAKNTVSLQMNSLNPEDTAVYYCAADPSHPGSLISTRRSDYDSWGRGTQVTVSSAAAYPYDVPDYGSHHHHHH
# Assays:
# [1] = biological target: full length GPVI on transfected DT40 cells (with FcR-γ chain) (UniProt Q9HCN6); test: cell-based or functional assay
# [2] = biological target: T1, GPVI on human washed platelets (human, UniProt Q9HCN6 21-339); test: cell-based or functional assay
# T1 sequence (looked up): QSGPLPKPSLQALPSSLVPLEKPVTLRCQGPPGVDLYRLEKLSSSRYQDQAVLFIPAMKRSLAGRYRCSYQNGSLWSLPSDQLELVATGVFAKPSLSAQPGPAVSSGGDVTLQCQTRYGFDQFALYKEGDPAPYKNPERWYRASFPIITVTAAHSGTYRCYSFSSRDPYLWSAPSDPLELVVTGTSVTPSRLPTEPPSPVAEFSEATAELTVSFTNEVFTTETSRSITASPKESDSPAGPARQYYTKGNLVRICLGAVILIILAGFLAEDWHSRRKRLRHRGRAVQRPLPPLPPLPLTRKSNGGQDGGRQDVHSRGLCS
# [3] = biological target: T2, recombinant GPVI-Fc (dimeric; D1 and D2 domains of GPVI fused to the Fc domain from IgG) (human, UniProt Q9HCN6 22-203); test: solid-phase binding assay, displacement of GPVI-Fc (100 nM) from a collagen surface
# T2 construct: range 22-203; also called GPVI-Fcγ; dimeric GPVI; not shown: Factor Xa cleavable junction and Fc domain from IgG (Sigplg+ vector)
# T2 sequence (looked up): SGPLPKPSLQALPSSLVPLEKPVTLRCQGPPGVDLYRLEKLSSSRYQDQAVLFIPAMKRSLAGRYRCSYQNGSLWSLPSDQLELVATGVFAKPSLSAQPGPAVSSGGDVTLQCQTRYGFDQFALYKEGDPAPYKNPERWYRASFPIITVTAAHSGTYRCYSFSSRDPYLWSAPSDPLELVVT
# [4] = biological target: T2, recombinant GPVI-Fc (dimeric; D1 and D2 …); test: SPR (Biacore T200), GPVI-Fc amine-coupled on CM5 chip, Nb2 in solution, 1:1 kinetic fit
# Method: Surface plasmon resonance experiments were performed using a Biacore T200 instrument (GE Healthcare). GPVI was immobilised directly onto the CM5 chip using amine-coupling. Reference surfaces were blocked using 1M ethanolamine pH 8. All sensograms shown are double reference subtracted and at least two replicates were injected per cycle as well as experimental replicates of n=3. Experiments were performed at 25° C. with a flow rate of 30 μL/min in HBS-P running buffer (10 mM HEPES pH 7.4, 0.15 M NaCl, 0.005% v/v surfactant P20). Each concentration of Nb2 was run as follows; 120 sec injection, 900 sec dissociation. Kinetic analysis was performed using the Biacore T200 Evaluation software using a global fitting to a 1:1 binding model.
# [5] = biological target: monomeric GPVI (GPVI-Fc cleaved with Factor Xa, Fc removed) (human) (UniProt Q9HCN6); test: SPR (Biacore T200), GPVI amine-coupled on CM5 chip, Nb2 in solution, 1:1 kinetic fit; immobilised monomeric GPVI, not GPVI-Fc
# [6] = biological target: T2, recombinant GPVI-Fc (dimeric; D1 and D2 …); test: displacement of GPVI-Fc (100 nM) from collagen surface; Nb2 freeze-thawed, day 0
# Method: (§1) Freshly made un-tagged nanobody 2 (4.2 mg/ml in PBS) was stored at 4° C. over a period of 72 hours. Samples were collected at 0, 24, 48 and 72 hours for ELISA and nanodrop analysis. 1 ml of Nb2 was also filtered using a Whatman 0.2 um syringe filter, and 50 μL was snap-frozen and thawed to determine the effects of both syringe filtering and freeze-thawing on nanobody function. The freeze-thawed sample was only tested between 0-48 hours after thawing. ELISA displacement assays were performed on each sample as described in ‘Solid-phase binding assay’. Nb2 concentrations were determined at each time point by measuring absorbance a 280 nm using a nanodrop ND-1000 spectrophotometer.
# (§2) Nb2 stability at 4° C. was tested by comparing the ability for nb2 to displace GPVI-Fc binding to a collagen surface after 0-, 24-, 48- and 72-hours storage at 4° C. (FIG. 8). Nb2 was stored in PBS with no added preservatives. In addition, samples of nb2 that were freeze-thawed and an additional sample that had been filtered were also tested. […] There was an observed reduction in protein concentration of approximately 3% when filtering but it is not abnormal for small losses in protein yield when filtering.
# [7] = biological target: T2, recombinant GPVI-Fc (dimeric; D1 and D2 …); test: displacement of GPVI-Fc (100 nM) from collagen surface; Nb2 freeze-thawed, day 1
# Method: as §1, §2
# [8] = biological target: T2, recombinant GPVI-Fc (dimeric; D1 and D2 …); test: displacement of GPVI-Fc (100 nM) from collagen surface; Nb2 freeze-thawed, day 2
# Method: as §1, §2
# [9] = biological target: T2, recombinant GPVI-Fc (dimeric; D1 and D2 …); test: displacement of GPVI-Fc (100 nM) from collagen surface; Nb2 syringe-filtered, day 0
# Method: as §1, §2
# [10] = biological target: T2, recombinant GPVI-Fc (dimeric; D1 and D2 …); test: displacement of GPVI-Fc (100 nM) from collagen surface; Nb2 syringe-filtered, day 1
# Method: as §1, §2
# [11] = biological target: T2, recombinant GPVI-Fc (dimeric; D1 and D2 …); test: displacement of GPVI-Fc (100 nM) from collagen surface; Nb2 syringe-filtered, day 2
# Method: as §1, §2
# [12] = biological target: T2, recombinant GPVI-Fc (dimeric; D1 and D2 …); test: displacement of GPVI-Fc (100 nM) from collagen surface; Nb2 syringe-filtered, day 3
# Method: as §1, §2
# [13] = biological target: T2, recombinant GPVI-Fc (dimeric; D1 and D2 …); test: displacement of GPVI-Fc (100 nM) from collagen surface; Nb2 stored at 4 °C, non-filtered, day 0
# Method: as §1, §2
# [14] = biological target: T2, recombinant GPVI-Fc (dimeric; D1 and D2 …); test: displacement of GPVI-Fc (100 nM) from collagen surface; Nb2 stored at 4 °C, non-filtered, day 1
# Method: as §1, §2
# [15] = biological target: T2, recombinant GPVI-Fc (dimeric; D1 and D2 …); test: displacement of GPVI-Fc (100 nM) from collagen surface; Nb2 stored at 4 °C, non-filtered, day 2
# Method: as §1, §2
# [16] = biological target: T2, recombinant GPVI-Fc (dimeric; D1 and D2 …); test: displacement of GPVI-Fc (100 nM) from collagen surface; Nb2 stored at 4 °C, non-filtered, day 3
# Method: as §1, §2
# [17] = biological target: T1, GPVI on human washed platelets; test: flow cytometry on washed platelets, 100 nM Nb28-AF647, with or without 500 nM Nb2
# Method: a) Washed platelets were incubated in an aggregometer at 37° C. and 1200 rpm in the presence of Nb28 or PBS control prior to stimulation with 10 μg/ml Horm collagen and aggregation traces captured. Nb28 had no effect on aggregation. b) Thrombin inhibited whole blood was preincubated with either vehicle (PBS) or 500 nM of unlabelled Nb28 and then flowed over fibrillar collagen I utilising the Maastricht flow chamber at 1000/s. None of the five investigated parameters of thrombus formation or platelet activation were affected by Nb28. Each data point represents one donor (n=4), unpaired non-parametric t-test was utilized to test for significance.
# Washed platelets were preincubated with 500 nM Nb2 or PBS vehicle control for 10 min, followed by addition of 100 nM Nb28-AF647 and immediate fixation. 50,000 events were acquired and Nb28-AF647 signal (FL4) measured with an Accuri C6 flow cytometer (BD) and data processed with the BD Accuri C6 Software.
# [18] = biological target: T3, full length GPVI on transfected DT40 cells (with FcR-γ chain) (UniProt Q9HCN6 21-339); test: cell-based or functional assay
# T3 sequence (looked up): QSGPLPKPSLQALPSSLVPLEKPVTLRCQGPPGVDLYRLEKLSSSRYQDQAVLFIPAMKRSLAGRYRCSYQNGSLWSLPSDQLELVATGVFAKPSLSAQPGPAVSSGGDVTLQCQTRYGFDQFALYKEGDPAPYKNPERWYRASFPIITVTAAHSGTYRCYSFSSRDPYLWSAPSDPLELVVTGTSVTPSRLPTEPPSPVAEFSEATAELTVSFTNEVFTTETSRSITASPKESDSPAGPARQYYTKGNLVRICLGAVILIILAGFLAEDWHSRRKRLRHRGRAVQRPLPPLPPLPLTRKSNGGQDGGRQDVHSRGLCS
# [19] = biological target: T2, recombinant GPVI-Fc (dimeric; D1 and D2 …); test: solid-phase binding assay, displacement of GPVI-Fc (100 nM) from a collagen surface (legend of Fig. 4a; differs from the text)
binder,measurement,setting,value
B1,"inhibition of collagen-stimulated NFAT reporter activity (nanobody 100 nM, collagen 10 µg/ml)",[1],> 80%
same,"IC50, inhibition of washed platelet aggregation to CRP (10 µg/ml)",[2],1 nM
same,"IC50, inhibition of washed platelet aggregation to collagen (5 µg/mL)",[2],172 nM
same,IC50,[3],18 nM
same,Kd,[4],0.7 nM
same,Kd,[5],0.58 nM
B2,IC50,[6],46.5 nM
same,IC50,[7],29.8 nM
same,IC50,[8],44 nM
same,IC50,[9],45.7 nM
same,IC50,[10],40.3 nM
same,IC50,[11],35.2 nM
same,IC50,[12],37.1 nM
same,IC50,[13],37 nM
same,IC50,[14],54.4 nM
same,IC50,[15],34 nM
same,IC50,[16],32.4 nM
B3,binding result,[17],binds
B4,"IC50, inhibition of washed platelet aggregation to CRP (10 µg/ml)",[2],22 nM
same,"IC50, inhibition of washed platelet aggregation to collagen (5 µg/mL)",[2],85 nM
same,"inhibition of collagen-stimulated NFAT reporter activity (nanobody 100 nM, collagen 10 µg/ml)",[18],> 80%
same,IC50,[3],61 nM
same,IC50,[19],62 nM
